Where “and” joins values, the source holds several entries; their conditions need not be identical. Equal values may be shown once.
T1: bovine HOGA (bHOGA) (Bos taurus, UniProt Q0P5I5)
T1 construct: gene HOGA1; native mature enzyme purified from kidney cortex mitochondria, begins at residue 26, 35,217 Da printed, no tag
T1 sequence (Q0P5I5 26-327): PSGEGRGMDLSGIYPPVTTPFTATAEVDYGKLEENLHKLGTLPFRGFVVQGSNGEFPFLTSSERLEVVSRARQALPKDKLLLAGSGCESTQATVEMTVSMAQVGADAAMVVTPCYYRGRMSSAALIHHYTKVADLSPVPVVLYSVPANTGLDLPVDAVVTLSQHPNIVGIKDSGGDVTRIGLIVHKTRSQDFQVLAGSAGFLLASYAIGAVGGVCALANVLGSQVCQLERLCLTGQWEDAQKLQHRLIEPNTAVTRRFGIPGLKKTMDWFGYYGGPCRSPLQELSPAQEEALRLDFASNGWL

T2: human HOGA (hHOGA) (Homo sapiens, UniProt Q86XE5)
T2 construct: gene HOGA1; His-tag (WT, Y140F) cleavable by PreScission leaving GPH, 33,097 Da tag-free; S77, N78 and S198 mutants as MBP fusion, MBP cleaved; tetramer
T2 sequence (Q86XE5 26-327): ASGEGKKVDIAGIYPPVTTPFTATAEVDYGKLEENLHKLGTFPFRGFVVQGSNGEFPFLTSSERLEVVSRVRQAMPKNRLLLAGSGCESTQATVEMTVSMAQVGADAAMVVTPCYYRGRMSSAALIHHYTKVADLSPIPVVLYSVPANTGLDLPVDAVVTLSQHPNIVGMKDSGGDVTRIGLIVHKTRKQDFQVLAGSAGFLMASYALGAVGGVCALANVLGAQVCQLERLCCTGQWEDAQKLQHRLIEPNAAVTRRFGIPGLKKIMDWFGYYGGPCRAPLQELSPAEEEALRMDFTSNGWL

B1: human 4-hydroxy-2-oxoglutarate aldolase (hHOGA), His-tag free (enzyme)
chain: GPHASGEGKKVDIAGIYPPVTTPFTATAEVDYGKLEENLHKLGTFPFRGFVVQGSNGEFPFLTSSERLEVVSRVRQAMPKNRLLLAGSGCESTQATVEMTVSMAQVGADAAMVVTPCYYRGRMSSAALIHHYTKVADLSPIPVVLYSVPANTGLDLPVDAVVTLSQHPNIVGMKDSGGDVTRIGLIVHKTRKQDFQVLAGSAGFLMASYALGAVGGVCALANVLGAQVCQLERLCCTGQWEDAQKLQHRLIEPNAAVTRRFGIPGLKKIMDWFGYYGGPCRAPLQELSPAEEEALRMDFTSNGWL
notes: three additional N-terminal residues left from the PreScission Protease recognition site after removal of the His-tag; the protein starts at residue 26; 302 residues in the mature form; Tetramer (dimer of dimers) in the crystal; dimer-tetramer equilibrium in solution; also called human HOGA; HOGA1; source: E. coli BL21*(DE3), purified (Ni-NTA, Q-Sepharose HP, Superdex 200); His-tag removed with …
B2: human HOGA (hHOGA) (Homo sapiens; Y140F) (protein)
chain: ASGEGKKVDIAGIYPPVTTPFTATAEVDYGKLEENLHKLGTFPFRGFVVQGSNGEFPFLTSSERLEVVSRVRQAMPKNRLLLAGSGCESTQATVEMTVSMAQVGADAAMVVTPCFYRGRMSSAALIHHYTKVADLSPIPVVLYSVPANTGLDLPVDAVVTLSQHPNIVGMKDSGGDVTRIGLIVHKTRKQDFQVLAGSAGFLMASYALGAVGGVCALANVLGAQVCQLERLCCTGQWEDAQKLQHRLIEPNAAVTRRFGIPGLKKIMDWFGYYGGPCRAPLQELSPAEEEALRMDFTSNGWL
notes: His-tag (WT, Y140F) cleavable by PreScission leaving GPH, 33,097 Da tag-free; S77, N78 and S198 mutants as MBP fusion, MBP cleaved; tetramer
B3: human HOGA (hHOGA) (Homo sapiens) (protein)
chain: ASGEGKKVDIAGIYPPVTTPFTATAEVDYGKLEENLHKLGTFPFRGFVVQGSNGEFPFLTSSERLEVVSRVRQAMPKNRLLLAGSGCESTQATVEMTVSMAQVGADAAMVVTPCYYRGRMSSAALIHHYTKVADLSPIPVVLYSVPANTGLDLPVDAVVTLSQHPNIVGMKDSGGDVTRIGLIVHKTRKQDFQVLAGSAGFLMASYALGAVGGVCALANVLGAQVCQLERLCCTGQWEDAQKLQHRLIEPNAAVTRRFGIPGLKKIMDWFGYYGGPCRAPLQELSPAEEEALRMDFTSNGWL
notes: as for B2
B4: human HOGA (hHOGA) (Homo sapiens; S77A) (protein)
chain: ASGEGKKVDIAGIYPPVTTPFTATAEVDYGKLEENLHKLGTFPFRGFVVQGANGEFPFLTSSERLEVVSRVRQAMPKNRLLLAGSGCESTQATVEMTVSMAQVGADAAMVVTPCYYRGRMSSAALIHHYTKVADLSPIPVVLYSVPANTGLDLPVDAVVTLSQHPNIVGMKDSGGDVTRIGLIVHKTRKQDFQVLAGSAGFLMASYALGAVGGVCALANVLGAQVCQLERLCCTGQWEDAQKLQHRLIEPNAAVTRRFGIPGLKKIMDWFGYYGGPCRAPLQELSPAEEEALRMDFTSNGWL
notes: as for B2
B5: human HOGA (hHOGA) (Homo sapiens; S198A) (protein)
chain: ASGEGKKVDIAGIYPPVTTPFTATAEVDYGKLEENLHKLGTFPFRGFVVQGSNGEFPFLTSSERLEVVSRVRQAMPKNRLLLAGSGCESTQATVEMTVSMAQVGADAAMVVTPCYYRGRMSSAALIHHYTKVADLSPIPVVLYSVPANTGLDLPVDAVVTLSQHPNIVGMKDAGGDVTRIGLIVHKTRKQDFQVLAGSAGFLMASYALGAVGGVCALANVLGAQVCQLERLCCTGQWEDAQKLQHRLIEPNAAVTRRFGIPGLKKIMDWFGYYGGPCRAPLQELSPAEEEALRMDFTSNGWL
notes: as for B2
B6: human HOGA (hHOGA) (Homo sapiens; N78Q) (protein)
chain: ASGEGKKVDIAGIYPPVTTPFTATAEVDYGKLEENLHKLGTFPFRGFVVQGSQGEFPFLTSSERLEVVSRVRQAMPKNRLLLAGSGCESTQATVEMTVSMAQVGADAAMVVTPCYYRGRMSSAALIHHYTKVADLSPIPVVLYSVPANTGLDLPVDAVVTLSQHPNIVGMKDSGGDVTRIGLIVHKTRKQDFQVLAGSAGFLMASYALGAVGGVCALANVLGAQVCQLERLCCTGQWEDAQKLQHRLIEPNAAVTRRFGIPGLKKIMDWFGYYGGPCRAPLQELSPAEEEALRMDFTSNGWL
notes: as for B2
B7: human HOGA (hHOGA) (Homo sapiens; N78T) (protein)
chain: ASGEGKKVDIAGIYPPVTTPFTATAEVDYGKLEENLHKLGTFPFRGFVVQGSTGEFPFLTSSERLEVVSRVRQAMPKNRLLLAGSGCESTQATVEMTVSMAQVGADAAMVVTPCYYRGRMSSAALIHHYTKVADLSPIPVVLYSVPANTGLDLPVDAVVTLSQHPNIVGMKDSGGDVTRIGLIVHKTRKQDFQVLAGSAGFLMASYALGAVGGVCALANVLGAQVCQLERLCCTGQWEDAQKLQHRLIEPNAAVTRRFGIPGLKKIMDWFGYYGGPCRAPLQELSPAEEEALRMDFTSNGWL
notes: as for B2
B8: human HOGA (hHOGA) (Homo sapiens; N78A) (protein)
chain: ASGEGKKVDIAGIYPPVTTPFTATAEVDYGKLEENLHKLGTFPFRGFVVQGSAGEFPFLTSSERLEVVSRVRQAMPKNRLLLAGSGCESTQATVEMTVSMAQVGADAAMVVTPCYYRGRMSSAALIHHYTKVADLSPIPVVLYSVPANTGLDLPVDAVVTLSQHPNIVGMKDSGGDVTRIGLIVHKTRKQDFQVLAGSAGFLMASYALGAVGGVCALANVLGAQVCQLERLCCTGQWEDAQKLQHRLIEPNAAVTRRFGIPGLKKIMDWFGYYGGPCRAPLQELSPAEEEALRMDFTSNGWL
notes: as for B2
B9: human HOGA (hHOGA) (Homo sapiens; S198T) (protein)
chain: ASGEGKKVDIAGIYPPVTTPFTATAEVDYGKLEENLHKLGTFPFRGFVVQGSNGEFPFLTSSERLEVVSRVRQAMPKNRLLLAGSGCESTQATVEMTVSMAQVGADAAMVVTPCYYRGRMSSAALIHHYTKVADLSPIPVVLYSVPANTGLDLPVDAVVTLSQHPNIVGMKDTGGDVTRIGLIVHKTRKQDFQVLAGSAGFLMASYALGAVGGVCALANVLGAQVCQLERLCCTGQWEDAQKLQHRLIEPNAAVTRRFGIPGLKKIMDWFGYYGGPCRAPLQELSPAEEEALRMDFTSNGWL
notes: as for B2
B10: human HOGA (hHOGA) (Homo sapiens; S77T) (protein)
chain: ASGEGKKVDIAGIYPPVTTPFTATAEVDYGKLEENLHKLGTFPFRGFVVQGTNGEFPFLTSSERLEVVSRVRQAMPKNRLLLAGSGCESTQATVEMTVSMAQVGADAAMVVTPCYYRGRMSSAALIHHYTKVADLSPIPVVLYSVPANTGLDLPVDAVVTLSQHPNIVGMKDSGGDVTRIGLIVHKTRKQDFQVLAGSAGFLMASYALGAVGGVCALANVLGAQVCQLERLCCTGQWEDAQKLQHRLIEPNAAVTRRFGIPGLKKIMDWFGYYGGPCRAPLQELSPAEEEALRMDFTSNGWL
notes: as for B2
B11: human HOGA (hHOGA) (Homo sapiens; S77V) (protein)
chain: ASGEGKKVDIAGIYPPVTTPFTATAEVDYGKLEENLHKLGTFPFRGFVVQGVNGEFPFLTSSERLEVVSRVRQAMPKNRLLLAGSGCESTQATVEMTVSMAQVGADAAMVVTPCYYRGRMSSAALIHHYTKVADLSPIPVVLYSVPANTGLDLPVDAVVTLSQHPNIVGMKDSGGDVTRIGLIVHKTRKQDFQVLAGSAGFLMASYALGAVGGVCALANVLGAQVCQLERLCCTGQWEDAQKLQHRLIEPNAAVTRRFGIPGLKKIMDWFGYYGGPCRAPLQELSPAEEEALRMDFTSNGWL
notes: as for B2

Biological target: the molecule itself
Test: AUC; sedimentation equilibrium; His-tag free hHOGA at 0.43, 0.82, 1.25 mg/ml and a replicate at 0.45, 0.78, 1.14 mg/ml, two rotor speeds; 20 mM HEPES pH 7.5, 100 mM NaCl; fit to a dimer-tetramer model (HETEROANALYSIS, SEDPHAT); tetramer to dimers
Conditions: not given
B1 was tested, and the Kd was ~60 µM and 58 to 63 µM.

Each molecule was assayed against T1, bovine HOGA (bHOGA) (assay: phenylhydrazine assay of glyoxylate formation). Conditions: racemic HOG; native enzyme from kidney mitochondria.
Type: biochemical
`O=C(O)C(=O)CC(O)C(=O)O` (racemic) [HOG] was tested, and the “phenylhydrazine assay of glyoxylate formation” value was “production of glyoxylate from HOG synthesized in-house”.

Biological target: the molecule itself
Test: crystal structure; apoenzyme (2.5 A) and pyruvate-Schiff base complex (1.97 A), space group P6(4)22, one molecule in the asymmetric unit; the tetramer is generated by crystallographic symmetry
Conditions: not given
With B1 the “stoichiometry N” value was 4.

What follows are molecules tested on O=C(O)C(=O)CC(O)C(=O)O (assay: purified protein). Conditions: racemic HOG, 100 mM TRIS pH 8.5, 37°C, aldol cleavage.
Type: biochemical, Homo sapiens
In the case of B2, the Km is reported as 8 ± 1 µM, the kcat is reported as 5.2 ± 0.1 s⁻¹ and the kcat/Km is reported as 650000 ± 81000 M⁻¹ s⁻¹. In the case of B3, the Km is reported as 11 ± 1 µM, the kcat is reported as 6.1 ± 0.1 s⁻¹ and the kcat/Km is reported as 555000 ± 50000 M⁻¹ s⁻¹. With B4 the Km was 84 ± 5 µM, the kcat was 2.5 ± 0.1 s⁻¹ and the kcat/Km was 30000 ± 2000 M⁻¹ s⁻¹. B5 showed a Km of 44 ± 2 µM, a kcat of 2.4 ± 0.1 s⁻¹ and a kcat/Km of 55000 ± 3000 M⁻¹ s⁻¹. Molecule B6 has a Km of 281 ± 14 µM, a kcat of 6.2 ± 0.1 s⁻¹ and a kcat/Km of 22000 ± 1000 M⁻¹ s⁻¹. In the case of B7, the Km is reported as 16 ± 1 µM, the kcat is reported as 4 ± 0.1 s⁻¹ and the kcat/Km is reported as 250000 ± 16000 M⁻¹ s⁻¹. Molecule B8 has a Km of 66 ± 4 µM, a kcat of 7.6 ± 0.1 s⁻¹ and a kcat/Km of 115000 ± 7000 M⁻¹ s⁻¹. B9 gave a Km of 77 ± 5 µM, a kcat of 7.8 ± 0.1 s⁻¹ and a kcat/Km of 101000 ± 7000 M⁻¹ s⁻¹. Molecule B10 has a Km of 58 ± 8 µM, a kcat of 0.8 ± 0.1 s⁻¹ and a kcat/Km of 14000 ± 2000 M⁻¹ s⁻¹. With B11 the Km was 82 ± 7 µM, the kcat was 1.2 ± 0.1 s⁻¹ and the kcat/Km was 15000 ± 1000 M⁻¹ s⁻¹.

These molecules were tested against T2, human HOGA (hHOGA) (assay: X-ray crystal structure, […] Å). Conditions: covalent Schiff base with Lys196; 10 mM sodium pyruvate in crystallization, pH 7.5, 20°C.
Type: binding
`CC(=O)C(=O)O` [pyruvate] was tested, and the “X-ray crystal structure, 1.97 Å” value was “clear continuous electron density for the imine Schiff base adduct between the ε-amino group of”.

From PMC3188589, “Structural and Biochemical Studies of Human 4-hydroxy-2-oxoglutarate Aldolase: Implications for Hydroxyproline Metabolism in Primary Hyperoxaluria” (PLoS ONE, 2011)
